For 143 substances, amyloid nucleation score results are on record in the supplement of paper PMC12042874.

± gives the uncertainty stated by the source.

This data set in a line: amyloid nucleation score (Sup35N fusion, yeast selection) (log enrichment); library NNK1; higher = more nucleation; inactive = no reads after selection. The gist of the method:
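After 24 hours of induction with 100 μM copper sulfate, psi-negative yeast expressing peptides of 20 random codons fused to Sup35N were grown for 7 days at 30°C on medium lacking adenine and uracil. Input and output plasmid inserts were sequenced with Illumina, and sequences with under 100 input reads were discarded. Scores for nucleation are the DiMSum log enrichment of output over input reads, centred on the mode score of non-aggregating sequences.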
As for LRWYTQGMVLLEDRPCRCYN, the amyloid nucleation score was -1.01 ± 0.41. As for LRYILFKNPSPNNIESL, the figure is -0.194 ± 0.53; as for LRYLGMMVRREKIEVINLNY, 0.329 ± 1.4; as for LRYLQQWYST, 2.67 ± 0.19. Under LSCQTPQSDEMSVAESAWAY stands -1.18 ± 1.2; under LSEKYTIPVLFHVLKIITGI, 0.495 ± 0.45.

LSFCDTQRMWSSDG: the amyloid nucleation score is 0.483 ± 0.85. As for LSGPCNFYQHSVSWCLCTYA, the figure is 0.764 ± 0.88. As for LSGWRYMVKA, the figure is 0.039 ± 0.41; as for LSHWAIVFVICGPRSKKGGS, -0.115 ± 1.

Regarding LSHWHGCCKSHRYIQF, the amyloid nucleation score came to 0.244 ± 0.3. Consider LSIWFFVYVLVG, for which the amyloid nucleation score stood at 0.043 ± 0.78.

As for LSNFLHCG, the amyloid nucleation score came to 0.907 ± 0.4.

As to LSNRVLEGFNSSWYISIRGF, the amyloid nucleation score is -0.434 ± 1.7. Under LSPGYSHTN stands -0.423 ± 0.6. In the case of LSPLNVKIDSSFVFYIIRLK, the amyloid nucleation score is -0.178 ± 0.36. In turn, LSPSCCCFYVLGIVT gave an amyloid nucleation score of 3.57 ± 0.081.

Turning to LSQLN, the amyloid nucleation score is -0.116 ± 0.26.

Consider LSRDHCKNLNLNP, for which the amyloid nucleation score was -0.084 ± 1.1.

Substance LSRNVVGAFGSGHWRADRAA showed an amyloid nucleation score of 0.256 ± 0.64. LSRPTYSRMHIWISCHLIVV: the amyloid nucleation score is -0.707 ± 1.7. Under LSRSYYNQFLTDFKGSGTYM stands -0.269 ± 0.64. As for LSSPLLS, the figure is 0.66 ± 0.44; as for LSTGWESNLEGCCENWGGLK, -0.499 ± 0.29.

As for LSTYTMLF, the amyloid nucleation score is -0.168 ± 0.28. On to LSVGKKDS, for which the amyloid nucleation score is -0.292 ± 0.23. LSVYA came in with an amyloid nucleation score of 0.612 ± 0.45. As for LSYCVIG, the entry is “inactive”; as for LSYKIKDT, 0.626 ± 0.72. Under LSYSWADSAPLCCTPMRGRG stands -0.324 ± 0.37; under LTAIFSRIFNI, -0.997 ± 1.4. Under LTAYLRGTDSGPERSWRCAS stands -0.209 ± 0.88; under LTGSISD, 1.17 ± 0.73; under LTHWTQHMF, -0.37 ± 0.87. Substance LTHYEFGTFFYKVWSNDRHK returned an amyloid nucleation score of 3.35 ± 0.062. As for LTMGRKMVPYHLVSAMMGTV, the figure is -0.114 ± 0.57. Regarding LTMPYAI, the amyloid nucleation score entry was “inactive”.

Substance LTNIYLVRMT came in with an amyloid nucleation score of 5.26 ± 0.071. Under LTNRSLIVRDWCTSTYPNPS stands 0.08 ± 0.53; under LTNTGEYQLVSTIPQGRHVV, -0.222 ± 0.36; under LTRKTVRKTSKNRIGLHHQT, “inactive”. For LTSRIEWNGHAQSLWWLLSK, the amyloid nucleation score was 0.711 ± 0.21. In the case of LTSRVQCKNNCFSD, the amyloid nucleation score is 2.38 ± 0.55. As to LTYATDSFNRNFHILMHHVP, the amyloid nucleation score was -0.711 ± 0.74. Under LTYLWFT stands -0.095 ± 0.27; under LVDCMALLNRYTSRIMDNC, -1.07 ± 0.8; under LVDSNFCVNVCAGQSRRVYG, -0.712 ± 0.8. Take LVELLVWMAGWRCGDFLACR: the amyloid nucleation score worked out at 0.867 ± 0.58. As for LVFKLLVLDHKSFGLLMVDS, the figure is -0.355 ± 0.63. LVFTCVGCWYQGKLWNE showed an amyloid nucleation score of 4.25 ± 0.12. As for LVHMIAYAVGNLMCIRPLLI, the figure is -0.467 ± 0.43; as for LVHPQVSVGS, 0.632 ± 0.74; as for LVHRRFMESDISGLCCALLW, -0.224 ± 1.4. With LVHSFMW, the amyloid nucleation score worked out at 0.876 ± 0.51.

In the case of LVHTDTNLVF, the amyloid nucleation score result was “inactive”. Under LVHVGSQHKTFTPCSMEFLI stands “inactive”; under LVLFVTFGWCIDELRWMKRR, -0.51 ± 2.1. As for LVLGWRFIVPRVNLISLGFV, the entry is “inactive”. Consider LVLVRFITPVDLAVMNGRLW, for which the amyloid nucleation score was -0.927 ± 0.34. As for LVMRRKYLVNSNTLCSFGLH, the entry is “inactive”; as for LVMTYVFLDCI, -0.634 ± 1.1; as for LVNDPVFMGTWILSARICNV, 0.323 ± 0.36. Under LVPCSWFYLDRSAQDSDCFS stands -0.754 ± 1.1; under LVPPGSYRSCLSHGRNCYSC, -0.203 ± 0.46; under LVPRIRFWDYHNTELATHQK, 5.13 ± 0.07. Turning to LVQESRHGLIRIRRVLLRIS, the amyloid nucleation score was -0.252 ± 0.52. As for LVRGVHT, the figure is -0.446 ± 0.28; as for LVRTIVLNKRIMWMIQLCFK, 0.86 ± 0.63; as for LVTFNDSQLSTWASLGLNS, -0.003 ± 0.46. Under LVVFISRVFTNDITFRFANI stands 0.675 ± 0.78; under LVYPYESLFHFESGASH, 0.32 ± 0.21; under LVYSFRKTFSC, 7.523 ± 0.047.

With LWCITYH, the amyloid nucleation score turned out to be 4.14 ± 0.1. As for LWCVLHDVGGGSYSLDRYTG, the amyloid nucleation score was found to be 0.379 ± 0.83.

The substance LWFLIFSSKADAKVDRRILL yielded an amyloid nucleation score of 0.041 ± 0.47. As for LWGFSISYRKFVVSYGKAP, the figure is 0.279 ± 0.31; as for LWGWGFSSEANPIGGRGILN, 0.277 ± 0.53. As for LWLRLRFVCKYRV, the figure is 1.9 ± 0.59; as for LWPFKSFGLVPCTV, -0.572 ± 0.69.

Consider LWPTGSRLSDG, for which the amyloid nucleation score was -0.354 ± 0.51. As for LWVVRI, the amyloid nucleation score was found to be 0.67 ± 0.85. With LWVYSMWVQLTAGFNTVDVM, the amyloid nucleation score is -0.707 ± 0.95. Substance LWYCTSSNNCDCSAAIIVNT gave an amyloid nucleation score of 4.19 ± 0.1. For the substance LYAALIIDYA, the amyloid nucleation score is 0.681 ± 0.66. As for LYDCCYIFTYYGSRYLTQKS, the figure is -0.091 ± 0.27; as for LYFKSSRCR, 1.12 ± 0.52; as for LYFWFVCNFAEIDFTITL, 3.05 ± 0.097.

In the case of LYHSVSSVEDLQSDACTSCM, the amyloid nucleation score is 6.728 ± 0.046. As to LYIYWCSWVNGTFT, the amyloid nucleation score was found to be 0.393 ± 0.33.

Turning to LYLEGINVFSVMLHEVLHTG, the amyloid nucleation score is -0.052 ± 0.43.

For the substance LYLYNYRFAGLFFIDLETIW, the amyloid nucleation score was -0.415 ± 0.57.

Take LYMVWCACSFWDYITVFIFM: the amyloid nucleation score is 0.041 ± 0.65. LYMYRSYI gave an amyloid nucleation score of 0.137 ± 0.42. Under LYPSISGFFCCKWGSVVNGL stands “inactive”; under LYQKHWVLSTALE, “inactive”; under LYRWCGPCYLIWGVSWS, -0.199 ± 0.45. Substance LYSDGLFANRTWLYF returned an amyloid nucleation score of 1.01 ± 0.61.

Turning to LYSFNGN, the amyloid nucleation score result was “inactive”. Under LYYIRVFRNSI stands -0.751 ± 0.46; under LYYNFKF, 0.321 ± 0.33; under LYYRKLVCWESGMA, 0.318 ± 0.66. For the substance LYYYEQH, the amyloid nucleation score was -0.388 ± 0.54.

Consider MADFFIHCFLSSYCEWFIWR, for which the amyloid nucleation score is -0.283 ± 0.46.

The substance MAPLTMTSDLSHISKTGIWG registered an amyloid nucleation score of 1.38 ± 0.9.

For MASHGDWGCSNRVFLFPHCR, the amyloid nucleation score is -2.08 ± 1.9.

For MASPLSLGKAVALAKHKWGD, the amyloid nucleation score was found to be 0.001 ± 1.1. As for MATSPFGERVPFIYLDHFCY, the figure is 0.009 ± 0.42; as for MCDVERCRS, “inactive”. On to MCLLKGGSLVIVCGSGH, for which the amyloid nucleation score was 5.76 ± 0.061.

For the substance MDFDRCYSFRGMR, the amyloid nucleation score is -0.13 ± 0.47. MDFYVLPNCRQNGMLCERSC had an amyloid nucleation score of 0.508 ± 0.67.

Substance MDNCIISRYMFHMLVTSKVY displayed an amyloid nucleation score of 0.996 ± 0.52. For the substance MDPTEEE, the amyloid nucleation score was -0.573 ± 1.4.

Consider MDSCCIMTMIKHELGLPYQP, for which the amyloid nucleation score turned out to be 3.77 ± 0.1. As for MDSRAVYYF, the entry is “inactive”; as for MDSTHSIPCHLNVFL, -0.475 ± 0.58. As for MDSYLSSNCKCDTLDVGGNE, the figure is -1.17 ± 1.6. Under MDTSL stands -0.235 ± 0.82. With MEIRYYFVFEEDGRVFEGGT, the amyloid nucleation score was found to be 0.025 ± 0.43. For MELTIAKSEMHVFKGGCVQL, the amyloid nucleation score was -0.45 ± 0.57. For MFAVMNGAVLSTPLDNVCRV, the amyloid nucleation score is -0.581 ± 1.6. Under MFCIDSRAVAGMRDGRINLG stands 1.64 ± 0.21.

As for MFFGWGT, the amyloid nucleation score is 1.19 ± 0.34. Under MFFLQCQMRLSLLVGNVLMR stands -0.054 ± 0.56; under MFHSYVSLGLCKW, 0.371 ± 0.84; under MFIYIYGVPVLTLWGFNVCV, 0.856 ± 0.48. The substance MFMSWVDFNLD showed an amyloid nucleation score of 0.066 ± 0.29. As for MFNRWDIHFIGNNNLYGICV, the figure is 0.613 ± 0.26. Under MFRSRGLMAQRYNFGTQLSY stands “inactive”; under MFSLYYPFSNWFDLI, -0.001 ± 0.52; under MFTWEL, 0.436 ± 1.2. For the substance MFVSLSSFSYLGKTLLVFFV, the amyloid nucleation score entry is “inactive”. Under MFYKSRLYNRYRYRHRCYNT stands -0.072 ± 0.27; under MFYVPIGPLSRCWRTALGFI, -0.786 ± 0.85; under MGDVFILFLLAGFLEDHNGY, -1.24 ± 0.45.

Take MGNLATRWFQR: the amyloid nucleation score is -0.037 ± 1.4. As to MGRMS, the amyloid nucleation score was 0.22 ± 0.69.

Take MGYCIWFYLKSYH: the amyloid nucleation score was -0.074 ± 0.3.

The substance MHYGTLSIVV returned an amyloid nucleation score of 0.302 ± 0.3. Under MHYRGKFLHDHWHESH stands -0.485 ± 1.1; under MILFSYNG, 1.7 ± 0.58; under MILTTPAAERLLYYILPLRD, -0.616 ± 0.81. As for MIMTW, the figure is -0.418 ± 0.48.
